The source of these data is publication doi:10.1101/619841.

Usually Kd stands for the free concentration of one partner at which half of the binding sites on the other are occupied at equilibrium, for simple one-to-one binding. Read a low Kd as a tighter complex. The stoichiometry N is the number of molecules, sites or subunits per partner or assembly.

In experiment [1] the target is cross-linked and fluorescent HIV-1 CA tubes co-assembled from CA A14C/E45C and labelled CA K158C (HIV-1). The experiment can be described thus: TIRF microscopy biosensor.
Experiment [2] has the same target. Briefly: TIRF microscopy biosensor, equilibrium binding.

In the case of “full length CPSF6 fused at its N-terminus to GFP (natural protein)”, the molar binding ratio (370 nM analyte) (molecules per CA) in experiment [1] came out at 0.2. As for “cyclophilin A labelled at Cys51 with Alexa Fluor 647 (from UniProt P62937 1-165) (natural protein)”, in experiment [2], the Kd is 8 µM and the stoichiometry N is 0.5 CypA per CA.
